In patent publication US20200157153:

Molecular target: His-EutM-SpyCatcher (N-His-GS-EutM-GS-SpyCatcher)

B1: SpyTag-AmDH (N-His-thrombin-SpyTag-GS-Ch1-AmDH) (protein)
chain: MGSSHHHHHHSSGLVPRGSHMMGSSGAHIVMVDAYKPTKGSGGSGVDMSLVEKTSIIKDFTLFEKMSEHEQVVFCNDPATGLRAIIAIHDTTLGPALGGCRMQPYNSVEEALEDALRLSKGMTYSCAASDVDFGGGKAVIIGDPQKDKSPELFRAFGQFVDSLGGRFYTGTDMGTNMEDFIHAMKETNCIVGVPEAYGSSGNPSPATAYGVYRGMKAAAKEAFGSDSLEGKVVAVQGVGNVAYHLCRHLHEEGAKLIVTDINKEAVARAVEEFGAKAVDPNDIYGVECDIFAPCALGGIINDQTIPQLKAKVIAGSALNQLKEPRHGDMIHEMGIVYAPDYVINAGGCINVADELYGYNRERAMKKIEQIYDNIEKVFAIAKRDNIPTYVAADRMAEERIETMRKARSQFLQNGHHILSRRRAR
- relative activity after 48 hours, 1:6 SpyTag-AmDH:EutM-SpyCatcher: approximately 79% relative activity
